Assay results reported in patent US20240109955A1.

How the values were obtained:
Experiment in all cases: cell-based or functional assay
[1] = molecular target: SARS-CoV-2 spike (S) protein, Omicron sublineage XBB (SARS-CoV-2)
[2] = molecular target: SARS-CoV-2 spike (S) protein, Omicron sublineage BQ.1.1 (SARS-CoV-2)
[3] = molecular target: SARS-CoV-2 spike (S) protein, Omicron sublineage BQ.1 (SARS-CoV-2)
[4] = molecular target: SARS-CoV-2 spike (S) protein, Omicron sublineage BA.2.75.2 (SARS-CoV-2)
[5] = molecular target: SARS-CoV-2 spike (S) protein, Omicron sublineage BA.4/5 (SARS-CoV-2)

B1: MX1065 (trispecific antibody)
chain 1: QTVVTQEPSFSVSPGGTVTLTCGLSSGSVSTAYFPSWYQQTPGQAPRTLIYGTNTRSSGVPDRFSGSILGNKAALTITGAQADDESDYYCVLYMGRGIVVFGGGTKLTVLGGSSGEIVMTQSPAILSVSPGERATLSCRASQSVAINLAWYQQKPGQAPRLLIYAASSRATGIPGRFSGSGSETNFTLTISSLQSGDFAVYYCQQYITWPPSYTFGQGTKLEIKGGGGSGGSGSGGGGSASGSGEVQLVESGGALIQPGGSLRLSCAASGIIVSANYMSWVRQAPGKGLEWVSVIYSGGSTFYADSVKGRFTISRDNSKNTLYLEMNSLRAEDTAVYYCARDAPILGVSDWGQGTLVTVSSGGSSGQVQLVESGGGVVQPGRSLRLSCAASGFTLSSYGMHWVRQAPGKGLEWVAVISYDGSNKYYVDSVKGRFTISRDNSKNTLYLQMNSLRAEDTAVYYCRWAYWELLPDYYYGMDVWGQGTTVTVSSASGGSGDKTHTCPPCPAPELLGGPSVFLFPPKPKDTLMISRTPEVTCVVVDVSHEDPEVKFNWYVDGVEVHNAKTKPREEQYNSYVVSVLTVLHQDWLNGKEYKCKVSNKALPAPIEKTISKAKGQPREPQVYTLPPCRDELTKNQVSLWCLVKGFYPSDIAVEWESNGQPENNYKTTPPVLDSDGSFFKKLTVDKSRWQQGNVFSCSVLHEALHSHYTQKSLSLSPG
chain 2: QTVVTQEPSFSVSPGGTVTLTCGLSSGSVSTAYFPSWYQQTPGQAPRTLIYGTNTRSSGVPDRFSGSILGNKAALTITGAQADDESDYYCVLYMGRGIVVFGGGTKLTVLGGSSGDTVMTQSPLSLPVTPGEPASISCRSSQSLLNSNGYNYLDWYVQKPGQSPQLLIYLGSNRASGVPDRFSGSGSGTDFTLKISRVEAEDVGVYYCMQPLQTPLFTFGPGTKVEIKGGGGSGGSGSGGGGSASGSGQVTLRESGPALVKPTQTLTLTCTFSGFSLSTRGVCVSWIRQPPGKALEWLAFIDWDDDKYYNTSLKTRLTISKDTSKNQVVLTMTNVHPVDTATYYCARISSHHGSSWCTTFDYWGQGALVTVSAGGSSGQVQLVESGGGVVQPGRSLRLSCAASGFTLSSYGMHWVRQAPGKGLEWVAVISYDGSNKYYVDSVKGRFTISRDNSKNTLYLQMNSLRAEDTAVYYCRWAYWELLPDYYYGMDVWGQGTTVTVSSASGGSGDKTHTCPPCPAPELLGGPSVFLFPPKPKDTLMISRTPEVTCVVVDVSHEDPEVKFNWYVDGVEVHNAKTKPREEQYNSYVVSVLTVLHQDWLNGKEYKCKVSNKALPAPIEKTISKAKGQPREPQVCTLPPSRDELTKNQVSLSCAVKGFYPSDIAVEWESNGQPENNYKTTPPVLDSDGSFFLVSKLTVDKSRWQQGNVFSCSVLHEALHSHYTQKSLSLSPG
[1]
  IC50, pseudovirus neutralization: 0.0125 µg/mL
  IC80, pseudovirus neutralization: 0.0167 µg/mL
[2]
  IC50, pseudovirus neutralization: 0.014 µg/mL
  IC80, pseudovirus neutralization: 0.0206 µg/mL
[3]
  IC50, pseudovirus neutralization: 0.0335 µg/mL
  IC80, pseudovirus neutralization: 0.086 µg/mL

B2: MX1066 (trispecific antibody)
chain 1: QTVVTQEPSFSVSPGGTVTLTCGLSSGSVSTAYFPSWYQQTPGQAPRTLIYGTNTRSSGVPDRFSGSILGNKAALTITGAQADDESDYYCVLYMGRGIVVFGGGTKLTVLGGSSGEIVMTQSPAILSVSPGERATLSCRASQSVAINLAWYQQKPGQAPRLLIYAASSRATGIPGRFSGSGSETNFTLTISSLQSGDFAVYYCQQYITWPPSYTFGQGTKLEIKGGGGSGGSGSGGGGSASGSGEVQLVESGGALIQPGGSLRLSCAASGIIVSANYMSWVRQAPGKGLEWVSVIYSGGSTFYADSVKGRFTISRDNSKNTLYLEMNSLRAEDTAVYYCARDAPILGVSDWGQGTLVTVSSGGSSGQVQLVESGGGVVQPGRSLRLSCAASGFTLSSYGMHWVRQAPGKGLEWVAVISYDGSNKYYVDSVKGRFTISRDNSKNTLYLQMNSLRAEDTAVYYCRWAYWELLPDYYYGMDVWGQGTTVTVSSASGGSGDKTHTCPPCPAPELLGGPSVFLFPPKPKDTLMISRTPEVTCVVVDVSHEDPEVKFNWYVDGVEVHNAKTKPREEQYNSYVVSVLTVLHQDWLNGKEYKCKVSNKALPAPIEKTISKAKGQPREPQVYTLPPCRDELTKNQVSLWCLVKGFYPSDIAVEWESNGQPENNYKTTPPVLDSDGSFFKKLTVDKSRWQQGNVFSCSVLHEALHSHYTQKSLSLSPG
chain 2: DTVMTQSPLSLPVTPGEPASISCRSSQSLLNSNGYNYLDWYVQKPGQSPQLLIYLGSNRASGVPDRFSGSGSGTDFTLKISRVEAEDVGVYYCMQPLQTPLFTFGPGTKVEIKGGSSGQTVVTQEPSFSVSPGGTVTLTCGLSSGSVSTAYFPSWYQQTPGQAPRTLIYGTNTRSSGVPDRFSGSILGNKAALTITGAQADDESDYYCVLYMGRGIVVFGGGTKLTVLGGGGSGGSGSGGGGSASGSGQVQLVESGGGVVQPGRSLRLSCAASGFTLSSYGMHWVRQAPGKGLEWVAVISYDGSNKYYVDSVKGRFTISRDNSKNTLYLQMNSLRAEDTAVYYCRWAYWELLPDYYYGMDVWGQGTTVTVSSGGSSGQVTLRESGPALVKPTQTLTLTCTFSGFSLSTRGVCVSWIRQPPGKALEWLAFIDWDDDKYYNTSLKTRLTISKDTSKNQVVLTMTNVHPVDTATYYCARISSHHGSSWCTTFDYWGQGALVTVSAASGGSGDKTHTCPPCPAPELLGGPSVFLFPPKPKDTLMISRTPEVTCVVVDVSHEDPEVKFNWYVDGVEVHNAKTKPREEQYNSYVVSVLTVLHQDWLNGKEYKCKVSNKALPAPIEKTISKAKGQPREPQVCTLPPSRDELTKNQVSLSCAVKGFYPSDIAVEWESNGQPENNYKTTPPVLDSDGSFFLVSKLTVDKSRWQQGNVFSCSVLHEALHSHYTQKSLSLSPG
[1]
  IC50, pseudovirus neutralization: 0.0287 µg/mL
  IC80, pseudovirus neutralization: 0.0298 µg/mL
[2]
  IC50, pseudovirus neutralization: 0.0284 µg/mL
  IC80, pseudovirus neutralization: 0.0307 µg/mL
[3]
  IC50, pseudovirus neutralization: 0.0359 µg/mL
  IC80, pseudovirus neutralization: 0.0413 µg/mL

B3: MX1056 (trispecific antibody)
chain 1: DTVMTQSPLSLPVTPGEPASISCRSSQSLLNSNGYNYLDWYVQKPGQSPQLLIYLGSNRASGVPDRFSGSGSGTDFTLKISRVEAEDVGVYYCMQPLQTPLFTFGPGTKVEIKGGSSGEIVMTQSPAILSVSPGERATLSCRASQSVAINLAWYQQKPGQAPRLLIYAASSRATGIPGRFSGSGSETNFTLTISSLQSGDFAVYYCQQYITWPPSYTFGQGTKLEIKGGGGSGGSGSGGGGSASGSGEVQLVESGGALIQPGGSLRLSCAASGIIVSANYMSWVRQAPGKGLEWVSVIYSGGSTFYADSVKGRFTISRDNSKNTLYLEMNSLRAEDTAVYYCARDAPILGVSDWGQGTLVTVSSGGSSGQVTLRESGPALVKPTQTLTLTCTFSGFSLSTRGVCVSWIRQPPGKALEWLAFIDWDDDKYYNTSLKTRLTISKDTSKNQVVLTMTNVHPVDTATYYCARISSHHGSSWCTTFDYWGQGALVTVSAASGGSGDKTHTCPPCPAPELLGGPSVFLFPPKPKDTLMISRTPEVTCVVVDVSHEDPEVKFNWYVDGVEVHNAKTKPREEQYNSYVVSVLTVLHQDWLNGKEYKCKVSNKALPAPIEKTISKAKGQPREPQVYTLPPCRDELTKNQVSLWCLVKGFYPSDIAVEWESNGQPENNYKTTPPVLDSDGSFFKKLTVDKSRWQQGNVFSCSVLHEALHSHYTQKSLSLSPG
chain 2: DTVMTQSPLSLPVTPGEPASISCRSSQSLLNSNGYNYLDWYVQKPGQSPQLLIYLGSNRASGVPDRFSGSGSGTDFTLKISRVEAEDVGVYYCMQPLQTPLFTFGPGTKVEIKGGSSGQTVVTQEPSFSVSPGGTVTLTCGLSSGSVSTAYFPSWYQQTPGQAPRTLIYGTNTRSSGVPDRFSGSILGNKAALTITGAQADDESDYYCVLYMGRGIVVFGGGTKLTVLGGGGSGGSGSGGGGSASGSGQVQLVESGGGVVQPGRSLRLSCAASGFTLSSYGMHWVRQAPGKGLEWVAVISYDGSNKYYVDSVKGRFTISRDNSKNTLYLQMNSLRAEDTAVYYCRWAYWELLPDYYYGMDVWGQGTTVTVSSGGSSGQVTLRESGPALVKPTQTLTLTCTFSGFSLSTRGVCVSWIRQPPGKALEWLAFIDWDDDKYYNTSLKTRLTISKDTSKNQVVLTMTNVHPVDTATYYCARISSHHGSSWCTTFDYWGQGALVTVSAASGGSGDKTHTCPPCPAPELLGGPSVFLFPPKPKDTLMISRTPEVTCVVVDVSHEDPEVKFNWYVDGVEVHNAKTKPREEQYNSYVVSVLTVLHQDWLNGKEYKCKVSNKALPAPIEKTISKAKGQPREPQVCTLPPSRDELTKNQVSLSCAVKGFYPSDIAVEWESNGQPENNYKTTPPVLDSDGSFFLVSKLTVDKSRWQQGNVFSCSVLHEALHSHYTQKSLSLSPG
[1]
  IC50, pseudovirus neutralization: 0.00713 µg/mL
  IC80, pseudovirus neutralization: 0.0236 µg/mL
[2]
  IC50, pseudovirus neutralization: 0.00584 µg/mL
  IC80, pseudovirus neutralization: 0.0419 µg/mL
[4]
  IC50, pseudovirus neutralization: 0.00253 µg/mL
  IC80, pseudovirus neutralization: 0.00992 µg/mL
[5]
  IC50, pseudovirus neutralization: 0.00412 µg/mL
  IC80, pseudovirus neutralization: 0.00589 µg/mL
[3]
  IC50, pseudovirus neutralization: 0.013 µg/mL
  IC80, pseudovirus neutralization: 0.0368 µg/mL
